Source: patent US20260258115A1 (MAPP BIOPHARMACEUTICAL, published 2026)

B1: ADI-14393 (antibody, V domains shown)
VH: QVQLVESGGGLVKPGGSLRLSCAASGFSFTGFYMNWVRQAPGKGLEWVSSISSSSTYKNYADSLQGRFTISRDNARSSLYLQMNSLRAEDTAVYYCARTRTEYTYGYYHDFWGQGTLVTVSS
VL: QPVLTQPPSVSGAPGQRVTISCTGSSSNIGAGYDVHWYQQVPGTAPKLLIYNNNNRPSGVPDRFSGSKSGTSASLAITGLQAEDEADYYCQSYDSRLSGVFGGGTKLTVL
notes: also called Ab 60
B2: ADI-14405 (antibody, V domains shown)
VH: QVQLVQSGTEVKKPGASVKVSCKASGYTFTNYDISWVRQAPGQGLEWMGWISGSTGNTIYAQNLQGRLTMTTDTSTSTAYMELRSLRSDDTAIYYCARDNVGYASGNYFDYWGQGTLVTVSS
VL: SYVLTQPPSVSVAPGKTARIPCGGNNIGSKSVHWYQQRPGQAPVLVIYYDSVRPSGIPERFSGSNSGNTATLTISTVEAGDEADFYCQVWDSSRDHEVFGGGTKLTVL
notes: also called Ab 71
B3: ADI-14406 (antibody, V domains shown)
VH: QVQLVQSGAEVKKPGESLKISCKGSGYKFTNYWIAWVRQMPGKGLEWLGVIYPGASDITYSPSFQGQVTISADKSISTAYLQWSSLKASDTAIYYCARQGSITAMSYWGQGTMVTVSS
VL: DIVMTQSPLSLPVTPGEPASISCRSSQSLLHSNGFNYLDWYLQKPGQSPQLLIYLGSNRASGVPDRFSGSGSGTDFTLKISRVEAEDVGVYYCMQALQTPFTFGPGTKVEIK
notes: also called Ab 72
B4: ADI-14416 (antibody, V domains shown)
VH: QVQLVQSGAEVKKPGESLKISCKGSGDTFSRNWIGWVRQMPGKGLEWMGIIWPGDSDTRYRQFFQGQQGQVIISVDKSISTAYLQWSSLKASDTATYYCATSPYGLGSYYEHWGQGTLVTVSS
VL: NFMLTQPHSLSDSPGKTVVISCTRSSGSIASNYVQWYQQRPGSAPTTVIYEDNQRPSGVPDRFSGSIDSSSNSASLTISGLKTEDEADYYCQSYDSSNPYVFGTGTKVTVL
notes: also called Ab 82
B5: ADI-14417 (antibody, V domains shown)
VH: EVQLVESGGGLVKPGGSLRLSCAASGFSFSSYSMHWVRQAPGKGLEWVSSISGSSTYIYHADSVKGRFTISRDNAERSLHLQMNSLRAEDTAVYYCARDPYSSGWLDSWGQGTLVTVSS
VL: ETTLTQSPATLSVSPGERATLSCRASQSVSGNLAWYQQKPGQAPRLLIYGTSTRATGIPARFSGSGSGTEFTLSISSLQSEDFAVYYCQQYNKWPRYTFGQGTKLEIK
notes: also called Ab 83
B6: ADI-14418 (antibody, V domains shown)
VH: QVQLVQSGAEVKKPGSSVKVSCKASGGTFTNYNINWVRQAPGQGLQWMGRISPTFAIANYAQKFQGRVTITADKSTSTAYMELSSLRSEDTAVYYCARAPHSGYDLALDYWGQGTLVTVSS
VL: DIQMTQSPSTLSASVGDRVTITCRASQSISSWLAWYQQKPGKAPKLLIYEASSLQSGVPSRFSGSGSGTEFTLTITSLQPDDFATYYCQQYNVYPWTFGQGTKVDIK
notes: also called Ab 84
B7: ADI-14421 (antibody, V domains shown)
VH: QVQLVQSGAEVKKPGESLKISCKGSGYNSSINWIGYWIGWVRQMPGKGLEWMGIINPGDSDTRYSPSFQGQVTISVDKSISTAYLQWGSLKASDTAMYYCARRAYRSGWHFDLWGRGTLVTVSS
VL: EIVMTQSPATLSVSPGERATLTCRASQSVSSNLAWYQQKPGQAPRLLIYGASTRATGIPARFSGSGSGTQFTLTISSLQSEDFAVYYCQHYNNWPPYTFGQGTKVEIK
notes: also called Ab 87
B8: ADI-14425 (antibody, V domains shown)
VH: QVQLQESGPGLVKPSETLSLTCTVSGGSVRSGSYYWSWIRQPPGKALEWIGYIYYSGSTNYNPALESRVTISVDTSKNQFSLMLSSVTAADTAVYYCARSAEGLARLYYFDHWGQGTLVTVSS
VL: QSVLIQPASVSGSPGQSITISCTGTSSDVGGYNYVSWYQQHPGKAPKLMIHDVSNRPSGVSNRFSGSKSGNTASLTISGLQAEDEADYYCSTYRSSNTLVVFGGGTKLTVL
notes: also called Ab 91
B9: ADI-14573 (antibody, V domains shown)
VH: QVQLVQSGAEVKKPGASVKVSCKASGYTFTTYGISWVRQAPGQGLEWMGWISTYKTYTNYAQKFQGRVTMTTDTSTSTAYMELRSLRSDDTAVYYCAKVAGGSGSYGDYWGQGTLVTVSS
VL: QPVLTQPPSVSVAPGKTARITCGGNNIGSKSVHWYLQKPGQAPVLVIYYDSDRPSGIPERFSGSNSGNTATLTISRVEAGDEADFFCQVWDSSSDHWVFGGGTKVTVL
B10: ADI-14589 (antibody, V domains shown)
VH: QITLKESGPVLVKPSETLTLTCTVSGFSLSNAKMGVSWIRQPPGKALEWLAHIFSNDEKSYNTSLKNRLTISKDTSKSQVVLTMTNMDTVDTATYYCARINYYDSSGYYLANFDYWGQGTLVTVSS
VL: NIRLTQSPSSLSASVGDRVTITCRASQRIASYLNWYQQKPGHAPKLLIHAASSLQSGVPSRFSGSGSGTDFTLTINSLLPEDFATYYCQQSYSSPPHSSPPLTFGGGTKVEIK
B11: ADI-14590 (antibody, V domains shown)
VH: EVQLVESGAEVKKPGESLKISCKGSGYSFATYWIGWVRQMPGKGLEWMGIIYPGDSDTRYSPSFQGQVTISADKSISTAYLQWSSLKASDTAIYYCARAKLPVAGLYYFDYWGQGTLVTVSS
VL: DIQLTQSPSSLSASVGDRVTITCRASQGISSTLAWYQQKPGKAPKLLIYDASSLESGVPSRFSGSGSGTDFTLTISSLHPEDFATYYCQQFNTYPTFGGGTKVEIK
B12: ADI-14592 (antibody, V domains shown)
VH: QVQLVQSGAEVKKPGESLKISCKGSGYTFTNYWIGWVRQMPGKGLEWMGIIYPDDSDTRYSPSFQGQVTISVDKSINTAYLQWSSLRASDTAIYYCACSNWPHYFDSWGQGTLVTVSS
VL: NFMLTQPHSVSESPGKTVTISCTRSSGNIAGNYVQWYQQRPGSAPTTVIYEDNQRPSGVPDRFSGSIDSSSNSASLTISGLKTEDEAVYYCQSYHPGNWVFGGGTKLTVL
B13: ADI-14593 (antibody, V domains shown)
VH: QVQLVQSGAEVKKPGESLKISCKGSGYSFSSYWVAWVRQMPGKGLEWMGIIYPADSDTRYSPSFQGQVTISADKSDSTAYLQWGSLKASDTAMYYCARSLYGSGDYFDYWGQGTLVTVSS
VL: NFMLTQPHSVSESPGRTVIISCTRSSGSIATNYVQWYQQRPGSAPTTVIYEDNQRPSGVPDRFSGSIDSSSNSASLTISGLKTEDEADYYCQSYGSGDVVFGGGTKVTVL
B14: ADI-14594 (antibody, V domains shown)
VH: QVQLVQSGAEVKKPGASVKLSCKASGYTFTTYTINWVRQAPGQGLEWMGWISGYNGNTDYAQKLQGRFTMTTDTSTNTAYMELRSLTSDDTAVYYCAKGGGGSESYFDYWGQGTLVTVSS
VL: SYELTQPPSVSVAPGKTARISCGGNNIGSKSVHWYQQKPGQAPVLVIYYDRDRPSGIPERFSGSNSGNTATLTISRVEAGDEADYYCQLWDRSSDHPYVFGTGTKVTVL
B15: ADI-14595 (antibody, V domains shown)
VH: EVQLLESGGGLVQPGGSLRLSCAASGFTFSIYSMNWVRQAPGKGLEWISYISRSGSTIFYADSVKGRFTISRDDAKNSLFLQMTSLRDADTAVYYCARVDCSNNKCYDYWGQGTLVTVSS
VL: DIQLTQSPATLSLSPGERATLSCRASQSISSFLAWYQQKPGQAPRLLIYDASKRATGTPARFSGGGSGRDFTLTISSLEPEDFAVYYCQQRSSWPLYTFGQGTKVEIK
B16: ADI-14599 (antibody, V domains shown)
VH: EVQLVESGGGLVQPGRSLRLSCKTSGFTFGDYAMSWVRQAPGQGLDWVGFIRTKAYGGTTEYAASVKGRFTLSRDDSKSIAYLQMNSLKTEDTAVYYCKSGGQFDYWGRGTLVTVSS
VL: NFMLTQPHSVSGSPGKTVTISCTGSSGSIASNYVQWYQQRPGSAPTTVICEDNQRPSGVPDRFSGSIDSSSNSASLTISGLKTEDEADYYCQSYDRSNQEVFGGGTKLTVL
B17: ADI-14606 (antibody, V domains shown)
VH: QVQLVQSGGGLVQPGGSLRLSCAASGFTVSSNYMGWVRQAPGKGLEWVSVIYTGGSTYYADSVKGRFTISRDNFKNTLYLQMNSLRAEDTALYYCARDLYSSGWFGYWGQGTLVTVSS
VL: DIRLTQSPATLSVSPGERATLSCRASQSVSINLGWFQQKPGQSPRLLIYGTSTRATGIPARFSGSGSGTEFTLTISSLQSEDFAVYYCHQYNNWPYTFGQGTKVEIK
B18: ADI-21040 (antibody, V domains shown)
VH: EVQLLESGPGLVKPSGTPSLTCAVSGVSITNSNNWWTWVRQPPGKGLEWIGEIYSSGSTNYSPSLKSRVTISLDKSKNQFSLKLSSVTAADTAVYYCARVLGYYGSGGGHLHSWGPGTLVTVSS
VL: SYELTQPPSASGTPGQRVTISCSGSSSNIGAGYDVHWYQQLPGTAPKLLISVNSNRPSGVPDRFSGSKSGTSASLAITGLQAEDEANYYCQSYDNSLSGYVVFGGGTKLTVL
B19: ADI-21053 (antibody, V domains shown)
VH: QVQLQESGPGLVKPSQTLSLTCTVSGVSISNSSGGYYWSWIRQHPGKGLEWIGYIYYSGSTYYNPSSGSTYYNPSLKSRVTVSVDTSKNQFSLKLTSVTAADTAVYYCARDIRGPHKHSLYNWFHPWGQGTLVTVSS
VL: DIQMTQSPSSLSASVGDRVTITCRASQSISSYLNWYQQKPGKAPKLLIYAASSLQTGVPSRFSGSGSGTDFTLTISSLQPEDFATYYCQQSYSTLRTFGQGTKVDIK

Assays:
Assay in all cases: BLI, IgG
[1] = molecular target: RSV prefusion F (preF), subtype A (respiratory syncytial virus, subtype A, UniProt P03420 26-513)
[2] = molecular target: RSV prefusion F (preF), subtype B (respiratory syncytial virus, subtype B)
[3] = molecular target: T1, RSV postfusion F (postF), subtype A (respiratory syncytial virus, subtype A, UniProt P03420 26-513)
T1 construct: also called F ΔFP; Postfusion subtype A

[4] = molecular target: T2, RSV postfusion F (postF), subtype B (respiratory syncytial virus, subtype B)
T2 construct: also called F ΔFP; Postfusion subtype B

Row | Binder | Kd [1] [nM] | Kd [2] [nM] | binding result [3] | Kd [4] [nM] | Kd [3] [nM] | binding result [1]
1 | B1 | 0.311 | 0.474 | no binding | 11.7 |  | 
2 | B2 | 0.142 | 0.227 |  | 38 | 11.7 | 
3 | B3 | 6.85 | 0.906 |  | 0.473 | 0.339 | 
4 | B4 | 2.39 | 0.369 |  | 0.106 | 0.182 | 
5 | B5 |  |  |  | 3.99 | 1.63 | no binding
6 | B6 | 1.25 | 1.58 |  | 0.258 | 0.441 | 
7 | B7 |  | 2.82 |  | 0.74 | 1.07 | no binding
8 | B8 | 48.1 | 20.3 |  | 9.34 | 0.742 | 
9 | B9 |  | 21 |  | 3.55 | 0.373 | no binding
10 | B10 | 6.48 | 28.2 |  | 15.4 | 0.596 | 
11 | B11 | 13.2 | 5.99 |  | 0.967 | 2.68 | 
12 | B12 | 2.4 | 0.301 |  | 0.0932 | 0.136 | 
13 | B13 | 2.33 | 0.358 |  | 0.108 | 0.161 | 
14 | B14 |  | 18.2 |  | 0.214 | 0.257 | no binding
15 | B15 | 2.19 | 16 |  | 14.4 | 1.3 | 
16 | B16 | 0.102 | 0.622 |  | 0.358 | 0.636 | 
17 | B17 |  |  |  | 0.659 | 1.28 | no binding
18 | B18 |  |  |  | 1.03 | 0.777 | no binding
19 | B19 | 71 |  |  | 118 | 6.37 | 
